{"source": "paper PMC11843870", "target": "Xn-XptA2 wt (A subunit, TcA, of the ABC toxin complex of Xenorhabdus nematophilus) (Xenorhabdus nematophilus)", "assay": "cryo-EM structure; single particle analysis, 1.5 mg/mL protein in 10 mM Tris, 100 mM NaCl, pH 7.5; C5 symmetry"}
{"substance": "Xn-XptA2 wt (A subunit, TcA, of the ABC toxin complex of Xenorhabdus nematophilus) (natural protein)", "values": [{"measurement": "stoichiometry N", "value": 5}]}
